# Experiment: yeast display, Sf9 membrane polyspecificity reagent, FACS + sequencing; frameworks hold sequencing errors
# Procedure, shortened: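 Galactose induction of a Saccharomyces cerevisiae BJ5465 synthetic nanobody display library ran 36–48 hours. The cells were then stained for 1 hour at 4 °C with 10% biotinylated, detergent-solubilized Sf9 membrane reagent, pulled down on streptavidin microbeads and FACS-sorted into low and high (top ~1%) gates on expression and reagent-binding fluorescence. Labels for polyreactivity follow the gate of origin.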
row,Sequence,polyreactivity (PSR sort gate)
1,QVQLVESGGGLVQAGGSLRLSCAASGFTFDAYTMGWYRQAPGKERELVAAINWSGDTTYYADSVKGRFTISRDNAKNTVYFQMNSLKPEDTAVYYCAAVWWIYGVWFDYWGQGTQVTVSS,high polyreactivity
2,QVQLVESGGGLVQAGGSLRLSCAASGFTFDFYAMGWYRPAPGKERELVAAISRSGGRTYYADSVKGRFTISRDNAKNTVYLQMNSLKPEDTAVYYCNTGFFYYNFRYYYWGQGTQVTVSS,low polyreactivity
3,QVQLVESGGGLVQAGGSLRLSCAASGFTFDGYAMGWDRQAPGNERELVAAFSDSGDSTYYADSVKGRFTISRDNAKNTVYLQMNSLTPEDTAVYYCAAGLGYYWSDYFAYDSCGQGTQVTVSS,low polyreactivity
4,QVQLVESGGGLVQAGGSLRLSCAASGFTFDHYAMGWYRQAPGKERELVARITGTGDSTYYADSVKGRFTISRDNAKNTVYLQRNSLKPEDTAVDYCNADRRYDFYDGYGYWGQGTQVTVSS,low polyreactivity
5,QVQLVESGGGLVQAGGSLRLSCAASGFTFDKYAMGWYRQAPGKERELVAAISNSGGRTYYADSVKGRFTISRDNAKNTVYLQMNSLKPEDTAVYYCTIFKDYDYWGQGTQVTVSS,high polyreactivity
6,QVQLVESGGGLVQAGGSLRLSCAASGFTFDNYAMGWYRQAPGKERELVAAINWSGDRTYYADSVKGRFTISRDNAKNTVYLQMNSQIPEDTAVYYCNAVTSWAGSLDYWGQGTQVTVSS,high polyreactivity
7,QVQLVESGGGLVQAGGSLRLSCAASGFTFDPDAMGWYRQAPGKERELVASITWSGDNTYYADSVKGRFSISRDNAKTTVYLQMNSLKPEDTAVYYCNVEWAWWSTRYDSWGQGTQVTVSS,high polyreactivity
8,QVQLVESGGGLVQAGGSLRLSCAASGFTFDSNVMGWYRQAPGKEREVVAAITGDDTTYYADSVKGRFTISRDNAKNTVYLQMNSLKPEDTAVYYCAADETESLEYTAYDMYYWGQGTQVTVSS,low polyreactivity
9,QVQLVESGGGLVQAGGSLRLSCAASGFTFDSYAMGWYRQAPGKERELVASISSSGSTNYADSVKGRFTISRDNAKNTVYLQMNSLKPEDTAVYYCAAESRYPFIYEYWGQGTQVTVSS,low polyreactivity
10,QVQLVESGGGLVQAGGSLRLSCAASGFTFDTYDMGWYRQAPGKERELVAAIDWSGVSTYYADSVKGRFTISRDNAKNTVYLQMNSLKPEDTAVYYCAADLWQYDIASWDYTYDYWGQGTQVTVSS,low polyreactivity
11,QVQLVESGGGLVQAGGSLRLSCAASGFTFDWNAMGWYRQAPGKERELVAAISNSDGSTYYADSVKGRFTISRDNAKNTVYLQMNSLKPEDTAVYYCNKLYRGGWYAYWGQGTQVTVSS,low polyreactivity
12,QVQLVESGGGLVQAGGSLRLSCAASGFTFDYNAMGWYRQAPGKERELVAVISSSGSRTYYADSVKGRFTISRDIAKITVYLQINSLNPEDTAVYYCAAARIGTRDYWGQGTQVSVSS,high polyreactivity
13,QVQLVESGGGLVQAGGSLRLSCAASGFTFDYNTMGWYRQAPGKEIELVAGISRGGGSTYYADSVKGRFTISRDNAKNTVYLQMNSLKPEVTAVYYCNTVLKRQRKNEYWGQGTQVTVSS,high polyreactivity
14,QVQLVESGGGLVQAGGSLRLSCAASGFTFDYYAMGWYRQAPGKERELVAAISWSGSTTYYADSVKGRFTISRDNAKNTVYLQMNSLKPEDTAVYYCATNLDRPFDYWGQGTQVTVSS,high polyreactivity
15,QVQLVESGGGLVQAGGSLRLSCAASGFTFDYYAMGWYRQAPGKERELVAAITSDGSTYYADSVKGRFTISRDNAKNTVYLQMNSLKPEDTAVYYCAADGISLYATAYDYWGQGTQVTVSS,low polyreactivity
16,QVQLVESGGGLVQAGGSLRLSCAASGFTFEEYAMGWYRQAPGKERELVAAIDYTVGSTYYADSVKGRFTISRDNAKNTVYLQMNSLKPEDTAVYYCNVDLSYSFNSAYGYWGQGTQVTVSS,low polyreactivity
17,QVQLVESGGGLVQAGGSLRLSCAASGFTFEKNAMGWDRQAPGKERELGAAISRGGSTYADSVKGRFTISRDNAKNTVHLQINSLKPEDTAVYYCAADTVYIFSSAINGEFGDWGQGTQVTVSS,low polyreactivity
18,QVQLVESGGGLVQAGGSLRLSCAASGFTFEKYSMGWYRQAPGKERELVAAITQSAGSTYADSVKGRFTISRDNAKNTVYLQMISLKPEDTAVYYFAARYRYPYYARYGYWGQGTQVTVSS,high polyreactivity
19,QVQLVESGGGLVQAGGSLRLSCAASGFTFEWYTMGWYRQAPGKERELVADISGDGTTYYADSVKGRFTISRDNAKNTLYLQMNSLKPEDTAVYYCAARTVGRKAGFDYWGQGTQVTVSS,high polyreactivity
20,QVQLVESGGGLVQAGGSLRLSCAASGFTFEYNAMGWYRQAPGKERELVAAISRSGGSTYYADSVKGRFTISRDNAKNTVYLQMNSLIPEDTAVYYCAAEPYPLPSYGYWGQGTQVTVSS,high polyreactivity
21,QVQLVESGGGLVQAGGSLRLSCAASGFTFEYYAMGWYRQAPGKEREFVAAISARGDSTYYADSVKGRFTISRDNAKNTVYLQMNSLKPEDSAVYYCAKKTSPRRYYYWGQGTQVTVSS,high polyreactivity

row,Sequence,polyreactivity (PSR sort gate)
1,QVQLVESGGGLVQAGGSLRLSCAASGFTFFDNAMGWYRQAPGKERELVAVISSGGRTYYADSVKGRFTISRDNAKNTVYLQMNSLTPEDTAVYYCNAARAQRVKYDYWGQGTQVTVSS,high polyreactivity
2,QVQLVESGGGLVQAGGSLRLSCAASGFTFFGNAMGWYRQAPGKERELVAAITGRAGRTYYADSVKGRFTISRDNAKNTVYLQMNSLKPEDTAVYYCAAKIRTSDMGYWGQGTQVTVSS,high polyreactivity
3,QVQLVESGGGLVQAGGSLRLSCAASGFTFFHNAMGWYRQAPGKERELVAAITSGGNTYYADSVKGRFTISRDNAKNTVYLQMNSLKPEDTAVYFCNAVISRVVRYEYWGQGTQVTVSS,high polyreactivity
4,QVQLVESGGGLVQAGGSLRLSCAASGFTFFHYAMGWYRQAPGKERELVAAIDYSAGSTYYADSVKGRFTISRDNAKNTVYLQMNSMKPEDTAVYYCAADARTSRGRRYYYWGQGTQVTVSS,low polyreactivity
5,QVQLVESGGGLVQAGGSLRLSCAASGFTFFKYAMGWYRQAPGKERELVAAISSSGGSTYYADSVKGRFTISRDNAKNTVYLQMNSLKPEDTAVYYCNRPAAVYFKLVTAYDYWGQGTQVTVSS,high polyreactivity
6,QVQLVESGGGLVQAGGSLRLSCAASGFTFFLYAMGWYRQAAGKERELGAAINSRGGSTYYADSVKGRFTLSRDNAKNTVYLQMNSLKPEDTAVYYCAAYIPRSYCGYDYGGQGTQVTVSS,high polyreactivity
7,QVQLVESGGGLVQAGGSLRLSCAASGFTFFLYAMGWYRQAPGKERELVARISSGRDTYYADSVKGRFTISRDNAKKTVYLQMNSLKPEDTAVYYCAVAFWFGYRYYYWGQGTQVTVSS,high polyreactivity
8,QVQLVESGGGLVQAGGSLRLSCAASGFTFFPNAKGWYRQAPGKERELVADITDGGSTNYADSVKGRFTISRDNAKNTVYLQMNSLKPEDTAVYYCNADWYGWFGGYEYWGQGTQVTVSS,high polyreactivity
9,QVQLVESGGGLVQAGGSLRLSCAASGFTFFRYAMGWYRQAPGKERELVASITSGGSTNYADSVKGRFTISRDNAKNTVYLQMNSLKPEDTAVYYCAAGSSFFRWVYEATGFYYWGQGTQVTVSS,high polyreactivity
10,QVQLVESGGGLVQAGGSLRLSCAASGFTFFRYAMGWYSQAPGKERELVATITRGGSTNYADSVKGRFTISRDNAKNTVYLQMNSLQPVDTAVYYCNKDKKTPTFDYWGQGTQVTVSS,low polyreactivity
11,QVQLVESGGGLVQAGGSLRLSCAASGFTFFVYAMGWYRQAPGKERELVAVITSGGTTNYADSVKGRFTISRDNAKNTVYLQMNSLKPEDTAVYYCATDNGGIPKYVPYDFWGQGTQVTVSS,high polyreactivity
12,QVQLVESGGGLVQAGGSLRLSCAASGFTFFYNAMGWYRQAPGKEREFVAAISGRGGTTYYADSVKGRFTISRDNAKNTVYLQMNSLKPEDTAVYYCAAYYRGYAYNYWGQGTQVTLSS,high polyreactivity
13,QVQLVESGGGLVQAGGSLRLSCAASGFTFFYVYTMGWYRQAPGKEREFVAAIDWTGRTYYADSVKGRFTISRDNAKNTVYLQMNSLKPEDTAVYYCNADVAPGIFYGYDSWGQGTQVTVSS,low polyreactivity
14,QVQLVESGGGLVQAGGSLRLSCAASGFTFGDYAMGWYRQAPGKERELVAAITSTGGSTYYADSVKGRFTISRDNEKHSVYLQMNCLKPEDTAVYYCAKPDYYRMGYWGQGTQVTVCS,low polyreactivity
15,QVQLVESGGGLVQAGGSLRLSCAASGFTFGDYAMGWYRQAPGKEWELVAAISWSAGSTYYADSVKGRFTISRDNAKNTVYVQMNSLKPEDTAVYYCAADDSATIEDDYWGQGTQVTVSS,high polyreactivity
16,QVQLVESGGGLVQAGGSLRLSCAASGFTFGENAMGWYRQAPGKERELVATISDSGDSTYYADSVKGRFTISRDNAQNTVYLQMNSLKPEDTAVYYCAAPLPHRGYDEGYWGQGTQVTVSS,low polyreactivity
17,QVQLVESGGGLVQAGGSLRLSCAASGFTFGEYAMGWYRQQPGKERELVAAISSSSGSTYYADSVKGRFTISRDNAKYTVYLQMNSLKPEDTAVYYCAATTSPRSARYYYWGQGTQVTVSS,high polyreactivity
18,QVQLVESGGGLVQAGGSLRLSCAASGFTFGGNAMGWYRQAPGKERELVADITWSGGSTYYADSVKGRFTISRDNAKNTVYLQMNSLKPEDTAVYYCNTVRYPSSNSGLDYWGQGTQVTVSS,high polyreactivity
19,QVQLVESGGGLVQAGGSLRLSCAASGFTFGGYAMGWYRQAPGKERELVAAIRSTGDTTYYADSVKGRFTISRDNAKNTVYVQMNSLKPEDTAVYYCNADLSRDNDFDYWGQGTQVTVSS,low polyreactivity
20,QVQLVESGGGLVQAGGSLRLSCAASGFTFGGYAMGWYRQAPGKERELVAAITGSGGNTFYADSVKGRFTISRDNAKNTVYLQMNSLKPEDTAVYYCAALAPYIGGVDYDYWGQGTQVTVSS,low polyreactivity

# From the nanobody polyreactivity screen of Harvey et al. (2022)
